Assay results published in publication PMC5487423 (2017).
Positions count from the first letter of the chain named. Where two headings read alike, the source gives them in different places.

Experiments:
Assay in all cases: BLI
[1] = molecular target: T1, CCL5 (human, UniProt P13501 24-91)
T1 chain: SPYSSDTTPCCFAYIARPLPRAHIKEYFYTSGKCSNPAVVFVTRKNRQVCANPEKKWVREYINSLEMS

[2] = molecular target: CCL7 (human, UniProt P80098 24-99)
[3] = molecular target: T2, CCL24_HUMAN (Homo sapiens)
T2 chain: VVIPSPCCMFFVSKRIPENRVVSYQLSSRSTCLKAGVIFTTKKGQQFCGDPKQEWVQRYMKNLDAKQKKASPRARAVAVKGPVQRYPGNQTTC

[4] = molecular target: CCL13_HUMAN (Homo sapiens)
[5] = molecular target: CCL2 (human, UniProt P13500 24-99)
[6] = molecular target: T3, CCL14_HUMAN (Homo sapiens)
T3 chain: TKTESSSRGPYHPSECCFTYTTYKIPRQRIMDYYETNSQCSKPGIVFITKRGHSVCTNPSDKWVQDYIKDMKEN

[7] = molecular target: CCL11 (human, UniProt P51671 24-97)
[8] = molecular target: T4, CCL22_HUMAN (Homo sapiens)
T4 chain: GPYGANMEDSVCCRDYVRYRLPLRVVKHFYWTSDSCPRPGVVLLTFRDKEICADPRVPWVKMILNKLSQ

[9] = molecular target: T5, CCL18_HUMAN (Homo sapiens)
T5 chain: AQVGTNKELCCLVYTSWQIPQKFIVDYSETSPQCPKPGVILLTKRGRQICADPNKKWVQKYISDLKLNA

[10] = molecular target: T6, CCL17_HUMAN (Homo sapiens)
T6 chain: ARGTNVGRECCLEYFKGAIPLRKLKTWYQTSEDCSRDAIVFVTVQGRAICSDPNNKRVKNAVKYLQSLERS

[11] = molecular target: T7, CCL3 (human, UniProt P10147 24-92)
T7 chain: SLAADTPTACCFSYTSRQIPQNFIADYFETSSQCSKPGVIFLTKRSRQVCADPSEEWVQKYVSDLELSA

[12] = molecular target: T8, CCL19_HUMAN (Homo sapiens)
T8 chain: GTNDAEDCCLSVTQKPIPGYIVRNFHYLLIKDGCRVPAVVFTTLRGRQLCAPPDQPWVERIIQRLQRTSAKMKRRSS

[13] = molecular target: T9, CCL16_HUMAN (Homo sapiens)
T9 chain: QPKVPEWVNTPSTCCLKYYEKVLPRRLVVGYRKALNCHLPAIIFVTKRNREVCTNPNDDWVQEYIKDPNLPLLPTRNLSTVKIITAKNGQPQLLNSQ

[14] = molecular target: T10, CCL4_HUMAN (Homo sapiens)
T10 chain: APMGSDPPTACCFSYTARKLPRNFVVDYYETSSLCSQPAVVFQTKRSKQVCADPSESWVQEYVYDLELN

[15] = molecular target: T11, CCL3L1_HUMAN (Homo sapiens)
T11 chain: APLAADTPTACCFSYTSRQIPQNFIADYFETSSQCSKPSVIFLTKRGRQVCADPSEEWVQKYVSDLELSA

[16] = molecular target: T12, CCL4L1_HUMAN (Homo sapiens)
T12 chain: T10 chain with S47G

[17] = molecular target: T13, CCL8 (human, UniProt P80075 24-99)
T13 chain: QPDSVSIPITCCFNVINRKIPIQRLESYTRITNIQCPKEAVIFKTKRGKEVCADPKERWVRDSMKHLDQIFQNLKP

[18] = molecular target: CCL15_HUMAN
[19] = molecular target: CCL23_HUMAN
[20] = molecular target: CCL27_HUMAN
[21] = molecular target: T2, CCL24_HUMAN
[22] = molecular target: T13, CCL8

Sequence of CCL2 (P13500 24-99): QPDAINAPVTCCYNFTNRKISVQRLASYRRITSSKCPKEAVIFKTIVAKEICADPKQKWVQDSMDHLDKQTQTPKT
Sequence of CCL11 (P51671 24-97): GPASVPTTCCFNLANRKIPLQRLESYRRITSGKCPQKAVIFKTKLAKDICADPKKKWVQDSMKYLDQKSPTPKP
Sequence of CCL13_HUMAN (Homo sapiens) (chain, as listed by the source): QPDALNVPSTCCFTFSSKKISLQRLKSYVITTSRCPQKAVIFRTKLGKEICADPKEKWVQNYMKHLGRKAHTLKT
Sequence of CCL7 (P80098 24-99): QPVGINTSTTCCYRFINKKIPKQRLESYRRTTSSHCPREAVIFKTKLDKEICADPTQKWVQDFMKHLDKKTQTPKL

B1: P991_AMBCA, purified, C-terminal StrepII-8xHis tag (natural protein)
chain: ETGENGEGTTQPDYDNSTDYYNYEDFKCTCPAPHLNNTNGTVMKPIGCYYTCNVTRCTAPDTYPCYNLTEHQAKNLTTSPTTLCAVGNCDHGICVPNGTKELCFKAPNLEE
Kd [1]: 1.5 nM | Kd [2]: 0.51 nM | Kd [3]: 6.5 nM | Kd [4]: 0.42 nM | Kd [5]: 12 nM | Kd [6]: 0.43 nM | Kd [7]: 3.4 nM | Kd [8]: 4 nM | Kd [9]: 0.21 nM | Kd [10]: 7.7 nM | Kd [11]: 1.1 nM | Kd [12]: 14 nM | Kd [13]: 1.3 nM | Kd [14]: 5.8 nM | Kd [15]: 1.4 nM | Kd [16]: 0.83 nM | Kd [17]: 8.8 nM | Kd [18]: 160 nM | Kd [19]: 5.6 nM | Kd [20]: 39 nM | Kd [21]: 6.54 nM | Kd [22]: 8.79 nM
